Source: patent publication US20220332804A1 (CSL INNOVATION, published 2022)

How the values were obtained:
Assay in all cases: SPR, mAb captured, C2 mutant analyte;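 note: Anti-C2 mAbs captured on goat anti-human IgG Biacore CM5 chips, alanine or serine C2 surface mutants flowed over at 37 °C, double-referenced sensorgrams fitted to a 1:1 binding model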
human C2 M316A = target: T1, human C2 M316A (human, UniProt P06681 21-752)
T1 sequence: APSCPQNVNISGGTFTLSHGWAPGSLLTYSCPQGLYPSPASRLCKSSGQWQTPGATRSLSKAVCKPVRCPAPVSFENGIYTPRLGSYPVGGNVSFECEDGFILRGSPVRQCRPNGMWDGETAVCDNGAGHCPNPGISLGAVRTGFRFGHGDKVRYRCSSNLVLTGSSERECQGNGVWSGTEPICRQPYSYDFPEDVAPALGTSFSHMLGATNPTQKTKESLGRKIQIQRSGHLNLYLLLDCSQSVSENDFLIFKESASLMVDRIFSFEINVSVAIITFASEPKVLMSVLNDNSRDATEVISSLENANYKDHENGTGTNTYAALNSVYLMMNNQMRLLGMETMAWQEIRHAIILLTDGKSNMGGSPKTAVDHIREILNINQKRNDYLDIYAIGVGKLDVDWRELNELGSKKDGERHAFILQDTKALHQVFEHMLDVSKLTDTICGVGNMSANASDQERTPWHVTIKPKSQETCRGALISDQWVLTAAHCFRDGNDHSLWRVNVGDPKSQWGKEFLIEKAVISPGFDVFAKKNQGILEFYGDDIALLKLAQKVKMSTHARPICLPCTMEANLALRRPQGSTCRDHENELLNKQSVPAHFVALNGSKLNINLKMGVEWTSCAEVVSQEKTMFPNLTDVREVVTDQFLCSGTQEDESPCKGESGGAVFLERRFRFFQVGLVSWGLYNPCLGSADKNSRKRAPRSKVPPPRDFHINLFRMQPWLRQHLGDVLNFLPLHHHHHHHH

human C2 Y328A = target: T2, human C2 Y328A (human, UniProt P06681 21-752)
T2 sequence: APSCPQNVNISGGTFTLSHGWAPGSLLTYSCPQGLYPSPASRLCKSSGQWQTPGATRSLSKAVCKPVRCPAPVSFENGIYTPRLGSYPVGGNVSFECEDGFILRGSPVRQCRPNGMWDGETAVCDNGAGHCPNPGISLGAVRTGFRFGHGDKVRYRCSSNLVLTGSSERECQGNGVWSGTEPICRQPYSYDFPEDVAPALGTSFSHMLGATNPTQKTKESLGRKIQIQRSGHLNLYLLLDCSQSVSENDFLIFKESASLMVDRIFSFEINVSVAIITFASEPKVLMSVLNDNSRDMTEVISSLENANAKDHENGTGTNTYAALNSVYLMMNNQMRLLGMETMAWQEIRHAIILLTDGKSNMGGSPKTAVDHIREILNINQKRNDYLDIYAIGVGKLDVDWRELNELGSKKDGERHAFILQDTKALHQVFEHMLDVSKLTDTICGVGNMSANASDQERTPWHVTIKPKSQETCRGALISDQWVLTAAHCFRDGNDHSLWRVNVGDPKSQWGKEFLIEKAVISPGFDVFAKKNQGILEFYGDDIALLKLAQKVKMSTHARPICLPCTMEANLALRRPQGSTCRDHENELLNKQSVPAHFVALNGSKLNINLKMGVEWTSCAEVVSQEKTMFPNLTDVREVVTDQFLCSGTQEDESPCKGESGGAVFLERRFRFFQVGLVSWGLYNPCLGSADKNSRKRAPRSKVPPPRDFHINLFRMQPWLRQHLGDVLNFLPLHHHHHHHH

human C2 E686A = target: T3, human C2 E686A (human, UniProt P06681 21-752)
T3 sequence: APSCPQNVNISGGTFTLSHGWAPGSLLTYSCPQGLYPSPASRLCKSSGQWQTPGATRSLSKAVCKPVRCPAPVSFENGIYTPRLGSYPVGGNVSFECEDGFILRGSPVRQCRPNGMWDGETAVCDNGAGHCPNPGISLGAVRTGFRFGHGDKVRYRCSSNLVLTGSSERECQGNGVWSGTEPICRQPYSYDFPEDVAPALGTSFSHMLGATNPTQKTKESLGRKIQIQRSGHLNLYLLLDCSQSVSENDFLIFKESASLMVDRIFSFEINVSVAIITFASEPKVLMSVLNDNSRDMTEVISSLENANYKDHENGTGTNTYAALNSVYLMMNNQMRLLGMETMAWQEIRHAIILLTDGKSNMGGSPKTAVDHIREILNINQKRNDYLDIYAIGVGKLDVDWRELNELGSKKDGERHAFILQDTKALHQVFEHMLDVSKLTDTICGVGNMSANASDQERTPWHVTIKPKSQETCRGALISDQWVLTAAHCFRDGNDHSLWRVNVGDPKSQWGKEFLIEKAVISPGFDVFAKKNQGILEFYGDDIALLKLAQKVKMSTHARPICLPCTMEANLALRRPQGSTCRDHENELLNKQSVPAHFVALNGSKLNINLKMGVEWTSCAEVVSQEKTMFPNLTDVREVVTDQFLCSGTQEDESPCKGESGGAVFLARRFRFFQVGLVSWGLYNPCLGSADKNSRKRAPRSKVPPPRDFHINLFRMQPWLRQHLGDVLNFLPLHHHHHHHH

human C2 K415A = target: T4, human C2 K415A (human, UniProt P06681 21-752)
T4 sequence: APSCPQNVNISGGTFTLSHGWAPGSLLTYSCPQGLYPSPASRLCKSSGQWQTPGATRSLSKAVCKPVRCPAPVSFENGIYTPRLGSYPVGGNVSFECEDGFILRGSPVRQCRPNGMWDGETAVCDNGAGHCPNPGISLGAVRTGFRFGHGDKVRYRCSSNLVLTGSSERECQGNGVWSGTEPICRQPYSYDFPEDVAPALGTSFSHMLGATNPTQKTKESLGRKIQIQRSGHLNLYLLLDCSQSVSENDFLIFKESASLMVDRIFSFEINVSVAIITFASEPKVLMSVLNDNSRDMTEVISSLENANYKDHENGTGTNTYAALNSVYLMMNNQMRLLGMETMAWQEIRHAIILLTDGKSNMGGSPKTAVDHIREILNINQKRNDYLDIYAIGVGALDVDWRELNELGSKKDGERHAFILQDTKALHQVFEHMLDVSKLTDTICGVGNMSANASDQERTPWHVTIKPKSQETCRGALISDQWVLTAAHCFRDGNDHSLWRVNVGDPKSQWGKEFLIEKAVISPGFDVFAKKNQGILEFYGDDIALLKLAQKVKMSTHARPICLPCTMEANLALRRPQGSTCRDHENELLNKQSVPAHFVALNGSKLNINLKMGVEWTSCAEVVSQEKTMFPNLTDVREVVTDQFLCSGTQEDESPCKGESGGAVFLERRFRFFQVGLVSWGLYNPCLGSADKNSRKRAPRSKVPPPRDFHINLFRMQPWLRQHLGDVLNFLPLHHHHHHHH

B1: RF16-214 (antibody, V domains shown)
VH: EVQLLESGGGLVQPGGSLRLSCAASGFTFSWYQMMWVRQAPGKGLEWVSRIYPSGGGTAYADSVKGRFTISRDNSKNTLYLQMNSLRAEDTAVYYCARDAGYGDNWGQGTLVTVSS
VL: QSALTQPPSVSVSPGQTASITCSGDKLGEKYASWYQQKAGQSPVMVIYQDRKRPSGIPERFSGSNSGNTATLTISGTQAMDEADYYCQAWDTRAVVFGGGTKLTVLG
- Kd (human C2 M316A): 30.2 nM
- Kd (human C2 Y328A): 196 nM
- Kd (human C2 E686A): 139 nM
- Kd (human C2 K415A): 46 nM
